Measured values: US20240116985A1 (published 2024)
Starred links: 1 amine or outer side, 2 acyl side, 3 side chain; linkers in the order of their positions; H or OH if unused. Positions of bridges follow the written chain, without caps; N, C: chain ends. Non-standard residues stand in square brackets, D forms with d. Primed or numbered codes have the meaning given here. SeN″ = (S)-5-(((allyloxy)carbonyl)(methyl)amino)-2-amino-2-methylpentanoic acid (stapling residue), C=CCOC(=O)N(C)CCC[C@](C)(N[*:1])C(=O)[*:2]; B5(16) = 2-amino-2-(pent-4-en-1-yl)hept-6-enoic acid = 2,2-bis(4-pentenyl)glycine (stitching residue), C=CCCCC(CCCC=C)(N[*:1])C(=O)[*:2]; B5(23) = 2-amino-2-(pent-4-en-1-yl)hept-6-enoic acid (2,2-bis(4-pentenyl)glycine), stitching residue, C=CCCCC(CCCC=C)(N[*:1])C(=O)[*:2]; B5(5) = 2,2-bis(4-pentenyl)glycine, 2-amino-2-(pent-4-en-1-yl)hept-6-enoic acid (stitching residue), C=CCCCC(CCCC=C)(N[*:1])C(=O)[*:2]; B5(9) = 2-amino-2-(pent-4-en-1-yl)hept-6-enoic acid (2,2-bis(4-pentenyl)glycine), C=CCCCC(CCCC=C)(N[*:1])C(=O)[*:2]; B5(19) = 2-amino-2-(pent-4-en-1-yl)hept-6-enoic acid (bis(4-pentenyl)glycine), C=CCCCC(CCCC=C)(N[*:1])C(=O)[*:2]; 23FF = 2,3-difluoro-L-phenylalanine, O=C([C@H](Cc1cccc(F)c1F)N[*:1])[*:2]; Phe(3,5-F2) = N[C@@H](Cc1cc(F)cc(F)c1)C(=O)O; d(βAsp) = O=C(O)[C@@H](CC(=O)[*:2])N[*:1]; Phe(3-F) = N[C@@H](Cc1cccc(F)c1)C(=O)O; His(τ-Me) = Cn1cnc(C[C@H](N)C(=O)O)c1; βAsp = O=C(O)[C@H](CC(=O)[*:2])N[*:1]; Bta = N[C@@H](Cc1csc2ccccc12)C(=O)O; αAllylPro = C=CC[C@@]1(C(=O)O)CCCN1; S8 = C=CCCCCCC[C@](C)(N)C(=O)O

T1: full-length beta-Catenin (Uniprot ID P35222) (Homo sapiens (Human), UniProt P35222 1-781)
T1 construct: also called bCat; B-Catenin
T1 sequence: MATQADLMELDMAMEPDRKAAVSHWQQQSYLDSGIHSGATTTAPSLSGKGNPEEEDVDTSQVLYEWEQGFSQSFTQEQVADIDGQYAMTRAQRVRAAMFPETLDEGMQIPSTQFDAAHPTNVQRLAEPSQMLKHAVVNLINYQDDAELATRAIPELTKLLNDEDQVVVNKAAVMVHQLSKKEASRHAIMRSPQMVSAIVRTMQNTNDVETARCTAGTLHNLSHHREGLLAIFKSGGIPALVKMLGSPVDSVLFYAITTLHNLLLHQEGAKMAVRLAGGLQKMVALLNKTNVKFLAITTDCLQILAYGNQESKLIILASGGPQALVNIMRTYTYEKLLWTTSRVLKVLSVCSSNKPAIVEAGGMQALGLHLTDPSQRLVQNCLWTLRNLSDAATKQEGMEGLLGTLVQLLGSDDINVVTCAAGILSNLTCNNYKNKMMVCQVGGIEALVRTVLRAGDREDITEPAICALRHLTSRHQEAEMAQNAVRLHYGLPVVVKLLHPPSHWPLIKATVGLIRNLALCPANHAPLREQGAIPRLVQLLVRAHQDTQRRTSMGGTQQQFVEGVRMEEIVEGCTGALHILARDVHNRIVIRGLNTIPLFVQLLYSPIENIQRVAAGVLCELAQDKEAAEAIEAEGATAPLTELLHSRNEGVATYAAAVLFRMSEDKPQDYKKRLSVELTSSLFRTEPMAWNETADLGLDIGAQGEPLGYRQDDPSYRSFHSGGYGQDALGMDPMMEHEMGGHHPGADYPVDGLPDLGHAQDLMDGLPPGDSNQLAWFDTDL

T2: full-length beta-Catenin (Uniprot ID P35222) (Homo sapiens (Human), UniProt P35222 1-781)
T2 construct: The assay text says full-length beta-Catenin (Uniprot ID P35222); also called bCat; B-Catenin
T2 sequence: T1 sequence

B1: I-658 (peptide)
peptide: XDIXDEALFQXFXQ
modifications: not fully specified; Ac-PL3-Asp-Ile-B5-Asp-Glu-Ala-Leu-Phe-Gln-S8-Phe-BztA-Gln-NH2; N-terminal acetyl, C-terminal amide; PL3(1), B5(4), S8(11) stapled by olefin metathesis (1-4 and 4-11); BztA at 13
notes: Stapled peptide
B2: I-390 (peptide)
peptide: Ac-[αAllylPro]DA[B5(9)]DEAA[23FF]V[S8]F[Bta]Q-NH2
modifications: staple 1-4, 4-11; not fully specified; printed as Ac-PL3-Asp-Ala-B5-Asp-Glu-Ala-Ala-23FF-Val-S8-Phe-BztA-Gln-NH2
notes: Stapled peptide; also called Ac-PL3-Asp-Ala-B5-Asp-Glu-Ala-Ala-23FF-Val-S8-Phe-BztA-Gln-NH2
B3: I-389 (peptide)
peptide: Ac-[αAllylPro]DA[B5(9)]DEAAFV[S8][23FF][Bta]Q-NH2
modifications: staple 1-4, 4-11; also: later eluting HPLC isomer, E/Z not assigned
notes: Stapled peptide; also called Ac-PL3-Asp-Ala-B5-Asp-Glu-Ala-Ala-Phe-Val-S8-23FF-BztA-Gln-NH2
B4: I-394 (peptide)
peptide: Ac-[αAllylPro]DA[B5(9)]DEAAFV[S8][Phe(3,5-F2)][Bta]Q-NH2
modifications: staple 1-4, 4-11
notes: Stapled peptide; also called Ac-PL3-Asp-Ala-B5-Asp-Glu-Ala-Ala-Phe-Val-S8-35FF-BztA-Gln-NH2
B5: I-391 (peptide)
peptide: Ac-[αAllylPro]DA[B5(9)]DEAA[23FF]V[S8]F[Bta]Q-NH2
modifications: staple 1-4, 4-11; also: later eluting HPLC isomer, E/Z not assigned
notes: as for B2
B6: I-388 (peptide)
peptide: XDAXDEAAFVXFXQ
modifications: not fully specified; N-terminal Ac; PL3 at 1, B5 at 4, S8 at 11 (stapled 1-4 and 4-11 by olefin metathesis); 23FF at 12; BztA at 13; C-terminal NH2
notes: as for B3
B7: I-407 (peptide)
peptide: Ac-[αAllylPro]DI[B5(23)]DEAAFQ[S8]F[Bta]Q-NH2
modifications: staple 1-4, 4-11
notes: Stapled peptide; also called Ac-PL3-Asp-Ile-B5-Asp-Glu-Ala-Ala-Phe-Gln-S8-Phe-BztA-Gln-NH2
B8: I-396 (peptide)
peptide: Ac-[αAllylPro]DA[B5(9)]DHAAFV[S8][Phe(3-F)][Bta]Q-NH2
modifications: staple 1-4, 4-11; also: earlier eluting HPLC isomer, E/Z not assigned
notes: Stapled peptide; also called Ac-PL3-Asp-Ala-B5-Asp-His-Ala-Ala-Phe-Val-S8-3FF-BztA-Gln-NH2
B9: I-403 (peptide)
peptide: Ac-[αAllylPro]DA[B5(16)]D[His(τ-Me)]AAFV[S8][Phe(3-F)][Bta]Q-NH2
modifications: staple 1-4, 4-11; not fully specified
notes: Stapled peptide; also called Ac-PL3-Asp-Ala-B5-Asp-1meH-Ala-Ala-Phe-Val-S8-3FF-BztA-Gln-NH2
B10: I-397 (peptide)
peptide: XDAXDHAAFVXFXQ
modifications: not fully specified; N-terminal Ac; PL3 at 1, B5 at 4, S8 at 11 (stapled 1-4 and 4-11 by olefin metathesis); 3FF at 12; BztA at 13; C-terminal NH2
notes: as for B8
B11: I-406 (peptide)
peptide: Ac-[αAllylPro]DA[B5(23)]DEAAFQ[S8]F[Bta]Q-NH2
modifications: staple 1-4, 4-11
notes: Stapled peptide; also called Ac-PL3-Asp-Ala-B5-Asp-Glu-Ala-Ala-Phe-Gln-S8-Phe-BztA-Gln-NH2
B12: I-400 (peptide)
peptide: Ac-[αAllylPro]DA[B5(16)]DHAAFQ[SeN″][Phe(3-F)][Bta]Q-NH2
modifications: staple 1-4, 4-11; not fully specified; printed as Ac-PL3-Asp-Ala-B5-Asp-His-Ala-Ala-Phe-Gln-SeN-3FF-BztA-Gln-NH2
notes: Stapled peptide; also called Ac-PL3-Asp-Ala-B5-Asp-His-Ala-Ala-Phe-Gln-SeN-3FF-BztA-Gln-NH2
B13: I-398 (peptide)
peptide: Ac-[αAllylPro]DA[B5(16)]DHAAFV[SeN″][Phe(3-F)][Bta]Q-NH2
modifications: staple 1-4, 4-11; not fully specified; printed as Ac-PL3-Asp-Ala-B5-Asp-His-Ala-Ala-Phe-Val-SeN-3FF-BztA-Gln-NH2
notes: Stapled peptide; also called Ac-PL3-Asp-Ala-B5-Asp-His-Ala-Ala-Phe-Val-SeN-3FF-BztA-Gln-NH2
B14: I-399 (peptide)
peptide: XDAXDHAAFQXFXQ
modifications: not fully specified; N-terminal Ac; PL3 at 1, B5 at 4, S8 at 11 (stapled 1-4 and 4-11 by olefin metathesis); 3FF at 12; BztA at 13; C-terminal NH2
notes: Stapled peptide; also called Ac-PL3-Asp-Ala-B5-Asp-His-Ala-Ala-Phe-Gln-S8-3FF-BztA-Gln-NH2
B15: I-410 (peptide)
peptide: Ac-[αAllylPro]DV[B5(23)]DEAAFQ[S8]F[Bta]Q-NH2
modifications: staple 1-4, 4-11
notes: Stapled peptide; also called Ac-PL3-Asp-Val-B5-Asp-Glu-Ala-Ala-Phe-Gln-S8-Phe-BztA-Gln-NH2

target: T1, full-length beta-Catenin (Uniprot ID …); assay: fluorescence polarization competition; full-length beta-catenin, competitor 5FAM-TCF4(10-53) probe
In short: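 Data fitted to 1:1 binding model with hill slope from duplicate reads taken after 60 minutes at 20° C. in the dark.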

IC50 [nM] | Binder
544 | Ac-[αAllylPro]DI[B5(19)]DEAFFQ[S8]F[Bta]Q-NH2 (staple 1-4, 4-11, Stapled peptide) [I-660]
546 | B1
43 | Ac-[αAllylPro]DI[B5(19)]DEAQFQ[S8]F[Bta]Q-NH2 (staple 1-4, 4-11, Stapled peptide) [I-663]
5000 | Ac-[αAllylPro]DI[B5(9)][βAsp]EAAFQ[S8]F[Bta]Q-NH2 (staple 1-4, 4-11, Stapled peptide) [I-673]
5000 | Ac-[αAllylPro]DI[B5(5)][d(βAsp)]EAAFQ[S8]F[Bta]Q-NH2 (staple 1-4, 4-11, Stapled peptide) [I-674]

target: T2, full-length beta-Catenin (Uniprot ID …); assay: fluorescence polarization competition; full-length beta-catenin with 5FAM-labeled TCF4 (residues 10-53) probe as competitor
Method: The plate was incubated protected from light for 60 minutes at 20° C. prior to read. Reads were performed on a CLARIOstar plate reader (BMG Labtech) in duplicate, and data were fitted to a 1:1 binding model with hill slope using an in-house script. All provided concentrations are final concentrations.

IC50 [nM] | Binder
3420 | B2
5000 | B3
5000 | B4
1910 | B5
5000 | B6
30 | B7
3430 | B8
2130 | B9
2230 | B10
94 | B11
3590 | B12
2160 | B13
2500 | B14
50 | B15
